The text below walks through data of patent publication US20070031907A1, “Anaplastic lymphoma kinase assay, reagents and compositions thereof” (Istituto Nazionale Per Lo Studio E La Cura Dei Tumori, priority 2003, published 2007).

As a reminder, the Km is the concentration of substrate that gives half-maximal velocity. What is called Vmax is the rate approached at saturating substrate.

Substrate in the data set: CC[C@H](C)[C@H](NC(=O)[C@H](CC(=O)O)NC(=O)[C@H](CCCNC(=N)N)NC(=O)[C@H](C)N)C(=O)N[C@@H](Cc1ccc(O)cc1)C(=O)N[C@@H](CCCNC(=N)N)C(=O)N[C@@H](C)C(=O)N[C@@H](CO)C(=O)N[C@@H](Cc1ccccc1)C(=O)N[C@@H](Cc1ccccc1)C(=O)N[C@@H](CCCNC(=N)N)C(=O)N[C@@H](CCCCN)C(=O)NCC(=O)NCC(=O)N[C@@H](CS)C(=O)N[C@@H](C)C(=O)N[C@@H](CCSC)C(=O)N[C@@H](CC(C)C)C(=O)N1CCC[C@H]1C(=O)N[C@H](C(=O)N[C@@H](CCCCN)C(=O)O)C(C)C
As to the kind of experiment: Peptide phosphorylation (radioactive assay) with rALK. Format: biochemical, human. The conditions noted are these: other: kinetic constants for rALK with synthetic peptides as substrate; pH 7.5; 30.0 °C.

Method: The reactions were terminated after 10 min of incubation at 30° C. by spotting 25 μl of the mixture onto P81 phosphocellulose papers, which were processed as described elsewhere (1). Kinetic constants were determined by GraphPad Prism software fitting the data directly to the Michaelis-Menten equation using nonlinear regression.

B1: rALK (ALK catalytic domain, Leu1073 to Ala1459) (Homo sapiens) (protein)
chain: LQSPEYKLSKLRTSTIMTDYNPNYCFAGKTSSISDLKEVPRKNITLIRGLGHGAFGEVYEGQVSGMPNDPSPLQVAVKTLPEVCSEQDELDFLMEALIISKFNHQNIVRCIGVSLQSLPRFILLELMAGGDLKSFLRETRPRPSQPSSLAMLDLLHVARDIACGCQYLEENHFIHRDIAARNCLLTCPGPGRVAKIGDFGMARDIYRASYYRKGGCAMLPVKWMPPEAFMEGIFTSKTDTWSFGVLLWEIFSLGYMPYPSKSNQEVLEFVTSGGRMDPPKNCPGPVYRIMTQCWQHQPEDRPNFAIILERIEYCTQDPDVINTALPIEYGPLVEEEEKVPVRPKDPEGVPPLLVSQQAKREEERSPAAPPPLPTTSSGKAAKKPTAA
notes: A portion of ALK, stretching from amino acids Leu^1073 to Ala^1459, has been cloned into the baculovirus transfer vector; made in house; host or cells: Sf9 (Spodoptera frugiperda) insect cells, baculovirus (pBlueBacHis2C, MaxBac 2.0)
As for B1, the Km stood at 109.4 µM and the maximal velocity (Vmax) came to 0.000186 µmol/min.
